From patent publication EP3783015A1 (Beijing DCTY Biotech Co., Ltd., dated 2021)

Target: T1, ErbB2-Domain4 protein (human, UniProt P04626 1-675)
T1 construct: Made in E. coli BL21(DE3) from pET-28a (NdeI/XhoI), dissolved from inclusion bodies in 8 M urea and purified on a Ni column; also called ErbB2-Domain4-encoded protein
Assay: indirect ELISA, ErbB2-Domain4 protein coated at 100 ng/well, antibody in serial dilution, A450

B1: mouse anti-human ErbB2 monoclonal antibody 10A6 (antibody, mouse IgG1, kappa, V domains shown)
VH: QVTLKESGPGILQPSQTLSLTCSFSGFSLSTSGMGVSWIRQPSGKGLEWLAHIYWDDDKRYNPSLKSRLTISKDSSNKQVFLKFTSVDTADTATYYCAHFAYYNYDGAVDSWGQGTSVTVSS
VL: DIVMSQSPSSLTVSAGEKVSMSCKSSQSLLHSRTRKNYLAWYQQKPGQSPKLLIYWASTRESGVPDRFTGSGSGTDFTLTISSVQAEDLAVYYCKQSYSLYTFGGGTKLEIKR
notes: Mouse IgG1-Kappa, purified from hybridoma supernatant on protein G; also called 10A6 clonal antibody protein
EC50: 100 nM
